Source: the supplement of paper PMC11246515
± gives the standard deviation of the averaged measurements.

Assay: total protein half-life in vivo (active degradation + dilution); higher = more stable protein
[1] = E. coli NCM3722 delta-clpP, growth: N-lim chemostat, doubling time 6 h
[2] = E. coli NCM3722 delta-smpB, growth: N-lim chemostat, doubling time 6 h
[3] = wild type E. coli NCM3722, growth: C-lim chemostat, doubling time 6 h
[4] = wild type E. coli NCM3722, growth: C-lim chemostat, doubling time 12 h
[5] = wild type E. coli NCM3722, growth: P-lim chemostat, doubling time 12 h
[6] = E. coli NCM3722 delta-clpP delta-lon delta-hslV, growth: N-lim chemostat, doubling time 6 h
[7] = E. coli NCM3722 delta-lon, growth: N-lim chemostat, doubling time 6 h
[8] = wild type E. coli NCM3722, growth: C-lim chemostat, doubling time 3 h
[9] = wild type E. coli NCM3722, growth: N-lim chemostat, doubling time 6 h
[10] = wild type E. coli NCM3722, growth: N-lim chemostat, doubling time 12 h
[11] = wild type E. coli NCM3722, growth: P-lim chemostat, doubling time 6 h
[12] = E. coli NCM3722 delta-hslV, growth: N-lim chemostat, doubling time 6 h

## MGNSDRKPGLIKRLWKWWRTPSRLALGTLLLIGFVGGIVFWGGFNTGMEKANTEEFCISCHEMRNTVYQEYMDSVHYNNRSGVRATCPDCHVPHEFVPKMIRKLKASKELYGKIFGVIDTPQKFEAHRLTMAQNEWRRMKDNNSQECRNCHNFEYMDTTAQKSVAAKMHDQAVKDGQTCIDCHKGIAHKLPDMREVEPGF [P0ABL5]
[1]
  total protein half-life in vivo: 4.79 h
[2]
  total protein half-life in vivo: 5.22 ± 1.8 h
[3]
  total protein half-life in vivo: 3.97 h
[4]
  total protein half-life in vivo: 9.62 h
[5]
  total protein half-life in vivo: 8.81 h

## MGNTSIQTQSYRAVDKDAGQSRSYIIPFALLCSLFFLWAVANNLNDILLPQFQQAFTLTNFQAGLIQSAFYFGYFIIPIPAGILMKKLSYKAGIITGLFLYALGAALFWPAAEIMNYTLFLVGLFIIAAGLGCLETAANPFVTVLGPESSGHFRLNLAQTFNSFGAIIAVVFGQSLILSNVPHQSQDVLDKMSPEQLSAYKHSLVLSVQTPYMIIVAIVLLVALLIMLTKFPALQSDNHSDAKQGSFSASLSRLARIRHWRWAVLAQFCYVGAQTACWSYLIRYAVEEIPGMTAGFAANYLTGTMVCFFIGRFTGTWLISRFAPHKVLAAYALIAMALCLISAFAGGHVGLIALTLCSAFMSIQYPTIFSLGIKNLGQDTKYGSSFIVMTIIGGGIVTPVMGFVSDAAGNIPTAELIPALCFAVIFIFARFRSQTATN
[3]
  total protein half-life in vivo: 3.02 h
[4]
  total protein half-life in vivo: 4.27 ± 0.49 h

## MGQLIDGVWHDTWYDTKSTGGKFQRSASAFRNWLTADGAPGPTGTGGFIAEKDRYHLYVSLACPWAHRTLIMRKLKGLEPFISVSVVNPLMLENGWTFDDSFPGATGDTLYQNEFLYQLYLHADPHYSGRVTVPVLWDKKNHTIVSNESAEIIRMFNTAFDALGAKAGDYYPPALQTKIDELNGWIYDTVNNGVYKAGFATSQEAYDEAVAKVFESLARLEQILGQHRYLTGNQLTEADIRLWTTLVRFDPVYVTHFKCDKHRISDYLNLYGFLRDIYQMPGIAETVNFDHIRNHYFRSHKTINPTGIISIGPWQDLDEPHGRDVRFG
[6]
  total protein half-life in vivo: 6.05 ± 0.31 h
[1]
  total protein half-life in vivo: 4.89 ± 0.16 h
[7]
  total protein half-life in vivo: 5.03 ± 0.45 h
[2]
  total protein half-life in vivo: 5.01 ± 0.34 h
[8]
  total protein half-life in vivo: 3.53 ± 0.54 h
[3]
  total protein half-life in vivo: 5.64 ± 0.061 h
[9]
  total protein half-life in vivo: 5.04 ± 0.15 h
[10]
  total protein half-life in vivo: 8.28 ± 0.38 h
[11]
  total protein half-life in vivo: 5.99 ± 0.58 h
[5]
  total protein half-life in vivo: 12.3 ± 0.26 h

## MGQSSQPHELGGGLKSRHVTMLSIAGVIGASLFVGSSVAIAEAGPAVLLAYLFAGLLVVMIMRMLAEMAVATPDTGSFSTYADKAIGRWAGYTIGWLYWWFWVLVIPLEANIAAMILHSWVPGIPIWLFSLVITLALTGSNLLSVKNYGEFEFWLALCKVIAILAFIFLGAVAISGFYPYAEVSGISRLWDSGGFMPNGFGAVLSAMLITMFSFMGAEIVTIAAAESDTPEKHIVRATNSVIWRISIFYLCSIFVVVALIPWNMPGLKAVGSYRSVLELLNIPHAKLIMDCVILLSVTSCLNSALYTASRMLYSLSRRGDAPAVMGKINRSKTPYVAVLLSTGAAFLTVVVNYYAPAKVFKFLIDSSGAIALLVYLVIAVSQLRMRKILRAEGSEIRLRMWLYPWLTWLVIGFITFVLVVMLFRPAQQLEVISTGLLAIGIICTVPIMARWKKLVLWQKTPVHNTR
[12]
  total protein half-life in vivo: 0.975 h
[2]
  total protein half-life in vivo: 1.1 h

## MGSGWHEWPLMIFTVFGQCVAGGFIVLALALLKGDLRAEAQQRVIACMFGLWVLMGIGFIASMLHLGSPMRAFNSLNRVGASALSNEIASGSIFFAVGGIGWLLAMLKKLSPALRTLWLIVTMVLGVIFVWMMVRVYNSIDTVPTWYSIWTPMGFFLTMFMGGPLLGYLLLSLAGVDGWAMRLLPAISVLALVVSGVVSVMQGAELATIHSSVQQAAALVPDYGALMSWRIVLLAVALCLWIAPQLKGYQPAVPLLSVSFILLLAGELIGRGVFYGLHMTVGMAVAS
[3]
  total protein half-life in vivo: 5.22 h
[5]
  total protein half-life in vivo: 10.9 h

## MGSINLRIDDELKARSYAALEKMGVTPSEALRLMLEYIADNERLPFKQTLLSDEDAELVEIVKERLRNPKPVRVTLDEL [P0C079]
[6]
  total protein half-life in vivo: 3.41 ± 0.82 h
[1]
  total protein half-life in vivo: 1.33 h
[3]
  total protein half-life in vivo: 1.45 h
[5]
  total protein half-life in vivo: 2.75 h

## MGTTTMGVKLDDATRERIKSAATRIDRTPHWLIKQAIFSYLEQLENSDTLPELPALLSGAANESDEAPTPAEEPHQPFLDFAEQILPQSVSRAAITAAYRRPETEAVSMLLEQARLPQPVAEQAHKLAYQLADKLRNQKNASGRAGMVQGLLQEFSLSSQEGVALMCLAEALLRIPDKATRDALIRDKISNGNWQSHIGRSPSLFVNAATWGLLFTGKLVSTHNEASLSRSLNRIIGKSGEPLIRKGVDMAMRLMGEQFVTGETIAEALANARKLEEKGFRYSYDMLGEAALTAADAQAYMVSYQQAIHAIGKASNGRGIYEGPGISIKLSALHPRYSRAQYDRVMEELYPRLKSLTLLARQYDIGINIDAEESDRLEISLDLLEKLCFEPELAGWNGIGFVIQAYQKRCPLVIDYLIDLATRSRRRLMIRLVKGAYWDSEIKRAQMDGLEGYPVYTRKVYTDVSYLACAKKLLAVPNLIYPQFATHNAHTLAAIYQLAGQNYYPGQYEFQCLHGMGEPLYEQVTGKVADGKLNRPCRIYAPVGTHETLLAYLVRRLLENGANTSFVNRIADTSLPLDELVADPVTAVEKLAQQEGQTGLPHPKIPLPRDLYGHGRDNSAGLDLANEHRLASLSSALLNSALQKWQALPMLEQPVAAGEMSPVINPAEPKDIVGYVREATPREVEQALESAVNNAPIWFATPPAERAAILHRAAVLMESQMQQLIGILVREAGKTFSNAIAEVREAVDFLHYYAGQVRDDFANETHRPLGPVVCISPWNFPLAIFTGQIAAALAAGNSVLAKPAEQTPLIAAQGIAILLEAGVPPGVVQLLPGRGETVGAQLTGDDRVRGVMFTGSTEVATLLQRNIASRLDAQGRPIPLIAETGGMNAMIVDSSALTEQVVVDVLASAFDSAGQRCSALRVLCLQDEIADHTLKMLRGAMAECRMGNPGRLTTDIGPVIDSEAKANIERHIQTMRSKGRPVFQAVRENSEDAREWQSGTFVAPTLIELDDFAELQKEVFGPVLHVVRYNRNQLPELIEQINASGYGLTLGVHTRIDETIAQVTGSAHVGNLYVNRNMVGAVVGVQPFGGEGLSGTGPKAGGPLYLYRLLANRPESALAVTLARQDAKYPVDAQLKAALTQPLNALREWAANRPELQALCTQYGELAQAGTQRLLPGPTGERNTWTLLPRERVLCIADDEQDALTQLAAVLAVGSQVLWPDDALHRQLVKALPSAVSERIQLAKAENITAQPFDAVIFHGDSDQLRALCEAVAARDGTIVSVQGFARGESNILLERLYIERSLSVNTAAAGGNASLMTIG
[6]
  total protein half-life in vivo: 5.93 ± 0.7 h
[1]
  total protein half-life in vivo: 5.68 ± 0.72 h
[12]
  total protein half-life in vivo: 2.39 ± 0.14 h
[7]
  total protein half-life in vivo: 2.81 ± 0.3 h
[2]
  total protein half-life in vivo: 2.34 ± 0.047 h
[8]
  total protein half-life in vivo: 2.08 ± 0.093 h
[3]
  total protein half-life in vivo: 3.5 ± 0.57 h
[4]
  total protein half-life in vivo: 4.276 ± 0.022 h
[9]
  total protein half-life in vivo: 2.64 ± 0.23 h
[10]
  total protein half-life in vivo: 3.8 ± 0.28 h
[11]
  total protein half-life in vivo: 2.46 ± 0.32 h
[5]
  total protein half-life in vivo: 4.246 ± 0.04 h

## MHCPFCFAVDTKVIDSRLVGEGSSVRRRRQCLVCNERFTTFEVAELVMPRVVKSNDVREPFNEEKLRSGMLRALEKRPVSSDDVEMAINHIKSQLRATGEREVPSKMIGNLVMEQLKKLDKVAYIRFASVYRSFEDIKEFGEEIARLED [P0A8D0]
[6]
  total protein half-life in vivo: 6.05 ± 0.84 h
[1]
  total protein half-life in vivo: 5.91 ± 0.41 h
[12]
  total protein half-life in vivo: 4.362 ± 0.017 h
[2]
  total protein half-life in vivo: 4 ± 0.71 h
[8]
  total protein half-life in vivo: 2.98 ± 1.4 h
[3]
  total protein half-life in vivo: 4.6 ± 0.41 h
[4]
  total protein half-life in vivo: 9.06 ± 0.4 h
[9]
  total protein half-life in vivo: 4.15 ± 0.58 h
[10]
  total protein half-life in vivo: 6.44 ± 0.094 h
[11]
  total protein half-life in vivo: 4.677 ± 0.038 h
[5]
  total protein half-life in vivo: 10.76 ± 0.082 h

## MHEIFNMLLAVFDRAALMLICLFFLIRIRLFRELLHKSAHSPKELLAVTAIFSLFALFSTWSGVPVEGSLVNVRIIAVMSGGILFGPWVGIITGVIAGIHRYLIDIGGVTAIPCFITSILAGCISGWINLKIPKAQRWRVGILGGMLCETLTMILVIVWAPTTALGIDIVSKIGIPMILGSVCIGFIVLLVQSVEGEKEASAARQAKLALDIANKTLPLFRHVNSESLRKVCEIIRDDIHADAVAITNTDHVLAYVGVGEHNYQNGDDFISPTTRQAMNYGKIIIKNNDEAHRTPEIHSMLVIPLWEKGVVTGTLKIYYCHAHQITSSLQEMAVGLSQIISTQLEVSRAEQLREMANKAELRALQSKINPHFLFNALNAISSSIRLNPDTARQLIFNLSRYLRYNIELKDDEQIDIKKELYQIKDYIAIEQARFGDKLTVIYDIDEEVNCCIPSLLIQPLVENAIVHGIQPCKGKGVVTISVAECGNRVRIAVRDTGHGIDPKVIERVEANEMPGNKIGLLNVHHRVKLLYGEGLHIRRLEPGTEIAFYIPNQRTPVASQATLLL [P0AA93]
[6]
  total protein half-life in vivo: 6.72 h
[1]
  total protein half-life in vivo: 6.87 ± 0.77 h
[12]
  total protein half-life in vivo: 6.53 ± 0.56 h
[2]
  total protein half-life in vivo: 5.52 ± 0.31 h
[8]
  total protein half-life in vivo: 2.84 ± 0.064 h
[9]
  total protein half-life in vivo: 5.53 ± 0.67 h
[5]
  total protein half-life in vivo: 14.8 ± 0.34 h

## MHEITLCQRALELIEQQAAKHGAKRVTGVWLKIGAFSCVETSSLAFCFDLVCRGSVAEGCKLHLEEQEAECWCETCQQYVTLLTQRVRRCPQCHGDMLQIVADDGLQIRRIEIDQE [P0A700]
[6]
  total protein half-life in vivo: 4.63 h
[1]
  total protein half-life in vivo: 2.12 h
[2]
  total protein half-life in vivo: 1.76 h
[4]
  total protein half-life in vivo: 11.3 h
[9]
  total protein half-life in vivo: 2.36 h
[10]
  total protein half-life in vivo: 2.23 h
